Test results: US11946041B2, “Modification of polypeptides” (BicycleRD Limited, priority 2017, dated 2024)
“Also recorded” adds a separate entry of the source.

Key:
MT1-MMP hemopexin domain = molecular target: T1, MT1-MMP hemopexin domain (Homo sapiens, UniProt P50281); assay: MMP-14 FP competition binding between peptide families
T1 construct: Human MMP-14 PEX protein at 71.1 μM monomer
Description: FIG. 6 illustrates an analysis of MT-MMP binding ligands. A: MMP-14 FP direct binding in cell-based selections; 1 nM tracer, 60 min data. 17-98-Sar6-k(FI)-and-17-99-Sar6-k(FI)-bind with Kds of 354 nM and 501 nM respectively. B: competition binding with several combinations of peptides, both fluorescein-labelled or native, from soluble and cell based selections.
FIG. 7 illustrates the competition profile between peptide ligands isolated in this example.
• Human MMP-14 PEX protein at 71.1 μM monomer (previously 77.1 μM) (T-017-011), stored in fridge (4/7/14) • Peptides as described in Results section
Method: • Prepare assay buffer: 20 mM HEPES, 150 mM NaCl, 1 mM CaCl2), 0.1% Tween20 (pH 7.6). Buffer was filtered before use to remove precipitate. • Method according to Example 3 with tracer at 1 nM and MMP-14 PEX at concentrations detailed in the graphs • 60 min data analysed • Results are shown in FIG. 6.

CCR4 [1] = molecular target: T2, CCR4 (Homo sapiens, UniProt P51679); assay: PathHunter eXpress CCR4 CHO-K1 β-Arrestin GPCR Assay, agonist format; format: cell-based
T2 construct: host or cells: CHO-K1
T2 sequence (P51679 1-360): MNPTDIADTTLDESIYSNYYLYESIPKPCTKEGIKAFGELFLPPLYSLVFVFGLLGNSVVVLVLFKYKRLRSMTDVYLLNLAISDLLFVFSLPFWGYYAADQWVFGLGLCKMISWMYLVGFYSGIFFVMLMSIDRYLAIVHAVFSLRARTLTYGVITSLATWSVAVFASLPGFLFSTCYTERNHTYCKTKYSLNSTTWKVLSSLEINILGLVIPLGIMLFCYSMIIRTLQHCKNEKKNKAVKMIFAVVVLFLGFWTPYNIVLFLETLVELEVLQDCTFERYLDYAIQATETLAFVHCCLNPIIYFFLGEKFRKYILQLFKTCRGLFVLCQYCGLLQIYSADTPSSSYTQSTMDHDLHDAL
Description: (§1) The aim of the present experiment was to analyze if if these peptides are functional using a Discoverx Assay, the Beta-Arrestin recruitment assay, to identify agonism or antagonism in the selected peptides.
(§2) Standard protocols used: • PathHunter® eXpress CCR4 CHO-K1 β-Arrestin GPCR Assay. 100 dp (1×96-well)
(§3) The experiment was carried using the manufacturer instructions.
The concentration was increased to test for response at high concentration.

CCR4 [2] = molecular target: T2, CCR4; assay: PathHunter eXpress CCR4 CHO-K1 β-Arrestin GPCR Assay, antagonist format with CCL22; format: cell-based
Description: as §1, §2, §3
We therefore used the assay in an antagonist format, using 10 nM CCL22.
We repeated this experiment lowering the concentration of CCL22 from 10 nM to 1 nM to show a full inhibition curve.

Sequence: CKMESWECLMLHPKC [Peptide 17-98]
- binding site on MT1-MMP (MT1-MMP hemopexin domain): binds to the same site as the 17-88 family (the collagen binding site)

Sequence: CPYSWETCLFGDYRC [Peptide 17-88, peptide ligand family from soluble selections against MT1-MMP hemopexin domain]
- binding site on MT1-MMP (MT1-MMP hemopexin domain): binds to the collagen binding site
- competition with other peptide families (MT1-MMP hemopexin domain): do not cross compete

Sequence: CYNEFGCEDFYDIC [Peptide 17-69-07]
- binding site on MT1-MMP (MT1-MMP hemopexin domain): binds to a neutral binding site; also recorded: binding site is distinct from the 17-88/17-98 binding site
- competition with other peptide families (MT1-MMP hemopexin domain): do not cross compete

Sequence: ACQTLCNTAEDIRCA [24-16-00-N001, bicyclic peptide ligand, TBMB scaffold, from CCR4 cell-based selection]
- Raw Data (CCR4 [1]; 0.006 nM): 23153
- Raw Data (CCR4 [1]; 0.02 nM): 23757
- Raw Data (CCR4 [1]; 0.06 nM): 25748
- Raw Data (CCR4 [1]; 0.17 nM): 25062
- Raw Data (CCR4 [1]; 0.51 nM): 25030
- Raw Data (CCR4 [1]; 1.5 nM): 24736
- Raw Data (CCR4 [1]; 4.6 nM): 22899
- Raw Data (CCR4 [1]; 13.9 nM): 20756
- Raw Data (CCR4 [1]; 41.7 nM): 20583
- Raw Data (CCR4 [1]; 125 nM): 20012
- Raw Data (CCR4 [1]; 375 nM): 20361
- Raw Data (CCR4 [1]; high concentration, 0.001 uM): 10927
- Raw Data (CCR4 [1]; high concentration, 0.003 uM): 11906
- Raw Data (CCR4 [1]; high concentration, 0.008 uM): 12502
- Raw Data (CCR4 [1]; high concentration, 0.023 uM): 12701
- Raw Data (CCR4 [1]; high concentration, 0.1 uM): 13482
- Raw Data (CCR4 [1]; high concentration, 0.2 uM): 13403
- Raw Data (CCR4 [1]; high concentration, 0.6 uM): 14951
- Raw Data (CCR4 [1]; high concentration, 1.9 uM): 14247
- Raw Data (CCR4 [1]; high concentration, 5.6 uM): 14263
- Raw Data (CCR4 [1]; high concentration, 16.7 uM): 13237
- Raw Data (CCR4 [1]; high concentration, 50 uM): 13817
- Raw Data (CCR4 [2]; 1 nM CCL22, 0.001 uM): 244145
- Raw Data (CCR4 [2]; 1 nM CCL22, 0.003 uM): 250550
- Raw Data (CCR4 [2]; 1 nM CCL22, 0.008 uM): 249215
- Raw Data (CCR4 [2]; 1 nM CCL22, 0.023 uM): 247868
- Raw Data (CCR4 [2]; 1 nM CCL22, 0.1 uM): 246609
- Raw Data (CCR4 [2]; 1 nM CCL22, 0.2 uM): 225038
- Raw Data (CCR4 [2]; 1 nM CCL22, 0.6 uM): 213774
- Raw Data (CCR4 [2]; 1 nM CCL22, 1.9 uM): 213016
- Raw Data (CCR4 [2]; 1 nM CCL22, 5.6 uM): 186217
- Raw Data (CCR4 [2]; 1 nM CCL22, 16.7 uM): 150731
- Raw Data (CCR4 [2]; 1 nM CCL22, 50 uM): 107480
- Raw Data (CCR4 [2]; 10 nM CCL22, 0.001 uM): 155442
- Raw Data (CCR4 [2]; 10 nM CCL22, 0.003 uM): 169611
- Raw Data (CCR4 [2]; 10 nM CCL22, 0.008 uM): 142089
- Raw Data (CCR4 [2]; 10 nM CCL22, 0.023 uM): 158472
- Raw Data (CCR4 [2]; 10 nM CCL22, 0.1 uM): 157585
- Raw Data (CCR4 [2]; 10 nM CCL22, 0.2 uM): 159872
- Raw Data (CCR4 [2]; 10 nM CCL22, 0.6 uM): 147765
- Raw Data (CCR4 [2]; 10 nM CCL22, 1.9 uM): 143871
- Raw Data (CCR4 [2]; 10 nM CCL22, 5.6 uM): 140714
- Raw Data (CCR4 [2]; 10 nM CCL22, 16.7 uM): 167890
- Raw Data (CCR4 [2]; 10 nM CCL22, 50 uM): 138655
